Literature values, collected in publication PMC9805914.

Target: SARS-CoV-2 spike RGD motif RGD motif (Severe acute respiratory syndrome coronavirus 2) (UniProt P0DTC2)

integrin αvβ8 (from UniProt P06756)
Kd: 4 nM
